# Laboratory results published in article doi:10.1101/2021.10.11.463953.
# Target: Acinetobacter sp. Ver3 iron superoxide dismutase (^AV3SodB) (Acinetobacter sp. Ver3)
# Assay: crystal structure
substance,measurement,value
Acinetobacter sp. Ver3 iron superoxide dismutase (^AV3SodB) (enzyme),stoichiometry N,2
